Test [1] deals with Sgo1_(1–130) (human) (UniProt Q5FBB7). The experiment in a line: ITC; Survivin or CPC (monomer concentration) injected into Sgo1 constructs, 20°C; 50 mM Hepes pH 8, 150 mM NaCl, 5% glycerol, 1 mM TCEP; standard 1:1 binding model. In general terms: In ITC the heat of successive injections is recorded.
The target in test [2] is Sgo1_(1–155) (human) (UniProt Q5FBB7). The test is described as above.
In test [3] the target is Sgo1_(1–415) (human) (UniProt Q5FBB7). Briefly: mass photometry; samples cross-linked with 0.01% glutaraldehyde 5 min at 4°C, quenched with Tris; 20 nM measured in 25 mM Hepes pH 8, 250 mM NaCl, 2 mM DTT.
Test [4] has the same target. The experiment in a line: ITC; Survivin or CPC (monomer concentration) injected into Sgo1 constructs, 20°C; 50 mM Hepes pH 8, 150 mM NaCl, 5% glycerol, 1 mM TCEP; standard 1:1 binding model.
For test [5] the target is unchanged. The experiment in a line: ITC; 100 μM CPC injected into 10 μM Sgo1 1-415 or 1-415 4A, 20°C; 50 mM Hepes pH 8, 250 mM NaCl, 5% glycerol, 1 mM TCEP, 0.005% Tween; standard 1:1 binding model.
For test [6], the target named is Sgo1_(1–415 4A) (human) (UniProt Q5FBB7). The description is as above.
Test [7] concerns the target Aurora B (endogenous) (UniProt Q96GD4). The experiment in a line: LacO-LacI tethering assay, immunofluorescence in U-2 OS-LacO Haspin CM cells. The conditions noted are these: n = 17 (parent), red bar = mean, parent: est. 3.5, read off a plot.
The target in test [8] is Borealin (endogenous) (UniProt Q53HL2). Described as above. The conditions noted are these: n = 22 (parent), red bar = mean, parent: est. 1.5, read off a plot.

Here are results for 10 substances from article PMC9253516.

Chain of Aurora B (endogenous) (Q96GD4 whole entry): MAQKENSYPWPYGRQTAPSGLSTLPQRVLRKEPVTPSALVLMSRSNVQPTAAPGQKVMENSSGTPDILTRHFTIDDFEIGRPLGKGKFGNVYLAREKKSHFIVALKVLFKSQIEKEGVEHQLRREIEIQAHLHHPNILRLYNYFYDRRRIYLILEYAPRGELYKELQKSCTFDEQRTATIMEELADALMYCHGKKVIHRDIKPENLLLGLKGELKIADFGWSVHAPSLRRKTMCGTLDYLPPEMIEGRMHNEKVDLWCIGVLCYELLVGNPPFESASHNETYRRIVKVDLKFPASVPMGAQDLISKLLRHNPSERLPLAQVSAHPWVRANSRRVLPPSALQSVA

With “CPC_(ISB10–221) (INCENP_(1–58), Survivin, Borealin_(10–221)) (from UniProt Q9NQS7 1-58; O15392 1-142; Q53HL2 10-221) (complex)”, the Kd (as a rule, the equilibrium constant for the complex coming apart) in test [1] is 163 nM.
In the case of “CPC_(ISB10–280 H80A) (from UniProt Q9NQS7 1-58; O15392 1-142; Q53HL2 10-280) (complex)”, the dissociation constant (Kd) in test [2] stood at 112 nM.
Take “CPC_(ISB10–280 K62A) (from UniProt Q9NQS7 1-58; O15392 1-142; Q53HL2 10-280) (complex)”: the Kd in test [2] was found to be 42.4 nM.
Regarding “CPC_(ISB10–280) (INCENP_(1–58), Survivin full length, Borealin_(10–280)) (from UniProt Q9NQS7 1-58; O15392 1-142; Q53HL2 10-280) (complex)”, the results for the stoichiometry N in test [3] and in test [4] were 1 ratio (2:2) and 1, respectively. For the same substance, the Kd in test [2] was determined as 71.2 nM; in test [1], 57.4 nM; in test [4] it was 52.8 nM; in test [5], 151 nM; in test [6] it was 112 nM. Further, the dH in test [4] is -6.58 kcal/mol.
As for “Sgo1_(1–415) (from UniProt Q5FBB7 1-415) (domain or fragment)”, the stoichiometry N (commonly the number of molecules, sites or subunits per partner or assembly) in test [3] was 2.
For Sgo1_(1–527)-LacI-GFP Nmut, the response in test [7] (n = 14 (mutant)) was found to be 2.3 a.u; in test [8] (n = 23 (mutant)), 0.6 a.u.
As to “Sgo1_(1–527)-LacI-GFP Nmut; V188A; S189A; V190A; R191A”, the response in test [7] (n = 22 (mutant)) was 0.4 a.u; in test [8] (n = 22 (mutant)) it was 0.28 a.u.
Regarding “Sgo1_(1–527)-LacI-GFP V188A; S189A; V190A; R191A”, the response in test [7] (n = 19 (mutant)) was found to be 1.6 a.u.
On to “Survivin full length (from UniProt O15392 1-142) (natural protein)”, for which the values for the Kd in test [2] and in test [1] were 240 nM and 255 nM, respectively.
Regarding “Survivin_(1–116) (from UniProt O15392 1-116) (domain or fragment)”, the Kd in test [2] was found to be 408 nM.
